Laboratory results taken from PMC8765073 (mAbs, 2022).
Like-named read-outs stand apart in the source and are kept apart here.

Tests used:
Assay in all cases: BLI
N501Y mutant RBD [1] = biological target: T1, N501Y mutant RBD (SARS-CoV-2 Alpha (B.1.1.7), RBD N501Y, N501Y)
N501Y mutant RBD [2] = biological target: T1, N501Y mutant RBD; remark: listed apart in the source
RBD of the Delta variant = RBD of the Delta variant (SARS-CoV-2, Delta (B.1.617.2), L452R | T478K)

| Binder | Kd (N501Y mutant RBD [1]) | Kd (N501Y mutant RBD [2]) | Kd (RBD of the Delta variant) |
| --- | --- | --- | --- |
| Y1.10 (scFv, V domains shown) VH: QVQLQQSGAEVKKPGSSVKVSCKASGGTFGNWTISWVRQAPGQGLEWMGGIGPRQGEATYAQKFQGRVTITTDESTSTAYMELSSLRSEDTAVYYCARETWYTSGGMDVWGQGTTVTVSS VL: SYELTQPPSVSVAPGKTARITCGGNNIGRKSVHWYQQKPGQAPVLVVYDDSDRPSGIPERFSGSNSGNTATLTISRVEAGDEADYYCQVYDLWSSDYVFGTGTKVEIK | 842 nM | – | – |
| Y7.10 (scFv, V domains shown) VH: QVQLQQSGAEVKKPGSSVKVSCKASGGTFGNWTISWVRQAPGQGLEWMGGIIPSRGEATYAQKFQGRVTITTDESTSTAYMELSSLRSEDTAVYYCARETWYTSGGMDVWGQGTTVTVSS VL: SYELTQPPSVSVAPGKTARITCGGNNIGRKSVHWYQQKPGQAPVLVVYDDSDRPSGIPERFSGSNSGNTATLTISRVEAGDEADYYCQVYDLWSSDYVFGTGTKVEIK | 41.2 nM | – | – |
| D27LE (antibody, V domains shown) VH: QVQLQQSGAEVKKPGSSVKVSCKASGGTFGNWSISWVRQAPGQGLEWMGGIDPSRGEATYAQKFQGRVTITTDESTSTAYMELSSLRSEDTAVYYCARETWYTSGGMDVWGQGTTVTVSS VL: SYELTQPPSVSVAPGKTARITCGGNNIGRKSVHWYQQKPGQAPVLVVYDDSDRPSGIPERFSGSNSGNTATLTISRVEAGDEADYYCQVYDLWSSDYVFGTGTKVEIK | – | 0.54 nM | – |
| D27LEY (antibody, V domains shown) VH: QVQLQQSGAEVKKPGSSVKVSCKASGGTFGNWSISWVRQAPGQGLEWMGGIAPGRGEATYAQKFQGRVTITTDESTSTAYMELSSLRSEDTAVYYCARETWYTSGGMDVWGQGTTVTVSS VL: SYELTQPPSVSVAPGKTARITCGGNNIGRKSVHWYQQKPGQAPVLVVYDDSDRPSGIPERFSGSNSGNTATLTISRVEAGDEADYYCQVYDLWSSDYVFGTGTKVEIK | – | < 0.001 nM | 0.32 nM |
| Y9.6 (scFv, V domains shown) VH: QVQLQQSGAEVKKPGSSVKVSCKASGGTFGNWTISWVRQAPGQGLEWMGGIIPTIGEATYAQKFQGRVTITTDESTSTAYMELSSLRSEDTAVYYCARETWYTSGGMDVWGQGTTVTVSS VL: SYELTQPPSVSVAPGKTARITCGGNNIGRKSVHWYQQKPGQAPVLVVYDDSDRPSGIPERFSGSNSGNTATLTISRVEAGDEADYYCQVYDLWSSDYVFGTGTKVEIK | 263 nM | – | – |
| Y6.8 (scFv, V domains shown) VH: QVQLQQSGAEVKKPGSSVKVSCKASGGTFGNWTISWVRQAPGQGLEWMGGIAPDRGEATYAQKFQGRVTITTDESTSTAYMELSSLRSEDTAVYYCARETWYTSGGMDVWGQGTTVTVSS VL: SYELTQPPSVSVAPGKTARITCGGNNIGRKSVHWYQQKPGQAPVLVVYDDSDRPSGIPERFSGSNSGNTATLTISRVEAGDEADYYCQVYDLWSSDYVFGTGTKVEIK | 93.5 nM | – | – |
| Y8.10 (scFv, V domains shown) VH: QVQLQQSGAEVKKPGSSVKVSCKASGGTFGNWSISWVRQAPGQGLEWMGGIAPGQGEATYAQKFQGRVTITTDESTSTAYMELSSLRSEDTAVYYCARETWYTSGGMDVWGQGTTVTVSS VL: SYELTQPPSVSVAPGKTARITCGGNNIGRKSVHWYQQKPGQAPVLVVYDDSDRPSGIPERFSGSNSGNTATLTISRVEAGDEADYYCQVYDLWSSDYVFGTGTKVEIK | 21.3 nM | – | – |
| Y2.1 (scFv, V domains shown) VH: QVQLQQSGAEVKKPGSSVKVSCKASGGTFGNWSISWVRQAPGQGLEWMGGIVPRDGEATYAQKFQGRVTITTDESTSTAYMELSSLRSEDTAVYYCARETWYTSGGMDVWGQGTTVTVSS VL: SYELTQPPSVSVAPGKTARITCGGNNIGRKSVHWYQQKPGQAPVLVVYDDSDRPSGIPERFSGSNSGNTATLTISRVEAGDEADYYCQVYDLWSSDYVFGTGTKVEIK | 30.8 nM | – | – |
| Y4.2 (D27LEY), scFv (scFv, V domains shown) VH: QVQLQQSGAEVKKPGSSVKVSCKASGGTFGNWSISWVRQAPGQGLEWMGGIAPGRGEATYAQKFQGRVTITTDESTSTAYMELSSLRSEDTAVYYCARETWYTSGGMDVWGQGTTVTVSS VL: SYELTQPPSVSVAPGKTARITCGGNNIGRKSVHWYQQKPGQAPVLVVYDDSDRPSGIPERFSGSNSGNTATLTISRVEAGDEADYYCQVYDLWSSDYVFGTGTKVEIK | 9.4 nM | 4.87 nM | – |
| Y4.1 (scFv, V domains shown) VH: QVQLQQSGAEVKKPGSSVKVSCKASGGTFGNWTISWVRQAPGQGLEWMGGIAPTRGEATYAQKFQGRVTITTDESTSTAYMELSSLRSEDTAVYYCARETWYTSGGMDVWGQGTTVTVSS VL: SYELTQPPSVSVAPGKTARITCGGNNIGRKSVHWYQQKPGQAPVLVVYDDSDRPSGIPERFSGSNSGNTATLTISRVEAGDEADYYCQVYDLWSSDYVFGTGTKVEIK | 102 nM | – | – |
| D27LE, scFv (scFv, V domains shown) VH: QVQLQQSGAEVKKPGSSVKVSCKASGGTFGNWSISWVRQAPGQGLEWMGGIDPSRGEATYAQKFQGRVTITTDESTSTAYMELSSLRSEDTAVYYCARETWYTSGGMDVWGQGTTVTVSS VL: SYELTQPPSVSVAPGKTARITCGGNNIGRKSVHWYQQKPGQAPVLVVYDDSDRPSGIPERFSGSNSGNTATLTISRVEAGDEADYYCQVYDLWSSDYVFGTGTKVEIK | 276 nM | – | – |
| Y9.7 (scFv, V domains shown) VH: QVQLQQSGAEVKKPGSSVKVSCKASGGTFGNWSISWVRQAPGQGLEWMGGINPSIGEATYAQKFQGRVTITTDESTSTAYMELSSLRSEDTAVYYCARETWYTSGGMDVWGQGTTVTVSS VL: SYELTQPPSVSVAPGKTARITCGGNNIGRKSVHWYQQKPGQAPVLVVYDDSDRPSGIPERFSGSNSGNTATLTISRVEAGDEADYYCQVYDLWSSDYVFGTGTKVEIK | 79.2 nM | – | – |
